In patent publication US20240293570A1 (priority 2021, published 2024):
Read-outs that look alike come from different tables or passages of the source.

Assays:
[1] = format: physicochemical; conditions: ADC with Her2 antibody, RP-HPLC-MS
Description: (§1) A drug-antibody conjugating ratio (also known as drug-antibody ratio, abbreviated as DAR) of the antibody-drug conjugate was tested using reversed-phase high-performance liquid chromatography-mass chromatography (RP-HPLC-MS). The ADC sample was diluted with 50 mmol/L Tris buffer (pH 8.0) to 1 mg/ml. A fresh dithiothreitol (DTT) stock solution was added to achieve a final DTT concentration of 50 mmol/L. Incubation was performed at 37° C. for 30 minutes. A PLRP-S chromatographic column (1000 Å pores, 2.1×50 mm, 5) μm) was used, and the column temperature was 70° C. The flow rate was 0.25 mL/min. […] of sample was injected; the mobile phase A was an aqueous solution of 0.1% formic acid (V/V) and 0.025% trifluoroacetic acid (V/V), and the mobile phase B was an acetonitrile solution of 0.1% formic acid (V/V) and 0.025% trifluoroacetic acid (V/V); the running time was 0-3 minutes, where 27% of mobile phase B ran for 3 minutes, and the mobile phase B ran from 27% to 49% within 3-25 minutes, from 49% to 95% within 25-26 minutes, at 95% within […], from 95% to 27% within 30-31.5 minutes, and at 27% for 31.5-45 minutes. […] Mass spectrometry drying gas was at a temperature of 350° C. and a flow rate of 7.0 L/min, the pressure of an atomizer was 40 psi, capillary voltage was positive 3000V and negative 3000V, and the mass range was 500-1600 m/z. The molecular weight of each mass spectrometry peak (ranging from 20000 to 70000) was calculated by deconvolution and compared with light and heavy chain molecular weights of un-conjugated antibodies to calculate a drug load at each peak, so as to determine the load of a corresponding ultraviolet peak. Area percentages of heavy and light chain ultraviolet peaks were calculated through integration, and a weighted average DAR of the antibody-drug conjugate was calculated by combining the area percentages with the drug load distribution of each peak.

[2] = Polymer (high molecular component) content of antibody-drug conjugates by SE-HPLC; format: physicochemical; conditions: ADC with Her2 antibody
Description: (§2) Polymers (high molecular components) of the antibody-drug conjugates were tested using molecular exclusion high-performance liquid chromatography (SE-HPLC). A Biocore SEC chromatographic column (7.8×300 mm, […]) was used, and the mobile phase was 50 mM phosphate containing 300 mM sodium chloride (pH 6.8), with a flow rate of 0.5 mL/min. Samples of […] and 10 μl were injected. […] The polymer content of an antibody-drug conjugate was calculated using an area normalization method.

[3] = Stability (placement) test of ADCs at 40° C. in dark for 14 days, DAR and polymer content; format: physicochemical
Description: as §2, §1
Stability testing method: The stability of the obtained ADCs was tested for 14 days. The ADCs were placed at 40° C. in dark. Sampling points were days 0, 7, and 14. The polymer content and DAR value of samples at different sampling points were tested according to the method in Experimental Example 1.

[4] = Naked antibody content of antibody-drug conjugates by hydrophobic interaction chromatography (HIC); format: physicochemical; conditions: ADC with Her2 antibody
Description: The content of naked antibodies in the antibody-drug conjugate was tested using hydrophobic interaction chromatography (HIC). A Biocore HIC-Butyl chromatographic column (4.6×150 mm, 5 μm) was used. The mobile phase A was a 100 mM phosphate aqueous solution containing 2 M ammonium sulfate (pH 7.0), and the mobile phase B was a 100 mM phosphate aqueous solution (pH 7.0): isopropanol=80:20 (V/V). Samples of 50 μg and 10 μl were injected. The mobile phase A at the flow rate of 1 mL/min ran at 100% for 3 minutes. Within 3-25 minutes, the mobile phase B ran from […] to 100%, while the mobile phase B decreased to 0% at 25.1 and ran to 30 minutes. […] The naked antibody content of the antibody-drug conjugate was calculated using an area normalization method based on the retention time of a naked antibody peak located by the antibody of the antibody-drug conjugate.

Row | SMILES | DAR [1] | Polymer content (%) [2] [%] | DAR ([3]; Day 0, 40° C. in dark) | Polymer content (%) ([3]; Day 0, 40° C. in dark) | DAR ([3]; Day 7, 40° C. in dark) | Polymer content (%) ([3]; Day 7, 40° C. in dark) | DAR ([3]; Day 14, 40° C. in dark) | Polymer content (%) ([3]; Day 14, 40° C. in dark) | Naked antibody content (%) [4] [%]
1 | C=C1C[C@@H]2CC[C@@]34C[C@H]5OC6C(O[C@H]7CC[C@H](CC(=O)C[C@@H]8[C@@H](OC)[C@@H](C[C@H](O)CNC(=O)CNC(=O)[C@H](Cc9ccccc9)NC(=O)CNC(=O)CNC(=O)CCOCCOCCN(CCOCCOCCC(=O)NCC(=O)NCC(=O)N[C@@H](Cc9ccccc9)C(=O)NCC(=O)NCOCC(=O)N[C@H]9CCc%10c(C)c(F)cc%11nc%12c(c9c%10%11)Cn9c-%12cc%10c(c9=O)COC(=O)[C@]%10(O)CC)C9CCC(NC(=O)CN%10CCOCCOCCOCCN(C(=O)CCCCCN%11C(=O)C=CC%11=O)CCOCCOCCOCC%10)CC9)O[C@H]8C[C@H]8O[C@@H](CC[C@@H]1O2)C[C@@H](C)C8=C)O[C@@H]7[C@@H]6O3)[C@H]5O4 (stereo partly drawn) [Example 19] | 3.92 | 1.53 | 3.92 | 1.53 | 3.91 | 1.56 | 3.87 | 1.49 | 5.22
2 | C=C1C[C@@H]2CC[C@@]34C[C@H]5OC6C(O[C@H]7CC[C@H](CC(=O)C[C@@H]8[C@@H](OC)[C@@H](C[C@H](O)CNC(=O)CNC(=O)[C@H](Cc9ccccc9)NC(=O)CNC(=O)CNC(=O)CCOCCOCCN(CCOCCOCCC(=O)NCC(=O)NCC(=O)N[C@@H](Cc9ccccc9)C(=O)NCC(=O)NCOCC(=O)N[C@H]9CCc%10c(C)c(F)cc%11nc%12c(c9c%10%11)Cn9c-%12cc%10c(c9=O)COC(=O)[C@]%10(O)CC)C9CCC(NC(=O)CN%10CCOCCOCCOCCN(C(=O)CCOCCOCCOCCOCCN%11C(=O)C=CC%11=O)CCOCCOCCOCC%10)CC9)O[C@H]8C[C@H]8O[C@@H](CC[C@@H]1O2)C[C@@H](C)C8=C)O[C@@H]7[C@@H]6O3)[C@H]5O4 (stereo partly drawn) [Example 20] | 3.85 | 1.48 | 3.85 | 1.48 | 3.87 | 1.50 | 3.89 | 1.43 | 4.23
3 | C=C1C[C@@H]2CC[C@@]34C[C@H]5OC6C(O[C@H]7CC[C@H](CC(=O)C[C@@H]8[C@@H](OC)[C@@H](C[C@H](O)CNC(=O)CNC(=O)[C@H](Cc9ccccc9)NC(=O)CNC(=O)CNC(=O)CN9CCOCCN(C(=O)CCN%10C(=O)C=CC%10=O)CCOCC9)O[C@H]8C[C@H]8O[C@@H](CC[C@@H]1O2)C[C@@H](C)C8=C)O[C@@H]7[C@@H]6O3)[C@H]5O4 [Example 21] | 4.08 | 0.87 | 4.08 | 0.87 | 4.06 | 0.90 | 4.10 | 0.88 | 2.56
4 | CCc1c2c(nc3ccc(O)cc13)-c1cc3c(c(=O)n1C2)CCC(=O)[C@@]3(CC)OC(=O)N(C)CCN(C)C(=O)COCNC(=O)CNC(=O)[C@H](Cc1ccccc1)NC(=O)CNC(=O)CNC(=O)CN1CCOCCN(C(=O)CCN2C(=O)C=CC2=O)CCOCC1 [Example 23] | 4.12 | 0.41 | 4.12 | 0.41 | 4.15 | 0.45 | 4.16 | 0.56 | 0.00
5 | C=C1C[C@@H]2CC[C@@]34C[C@H]5OC6C(C[C@H]7CC[C@H](CC(=O)C[C@@H]8[C@@H](OC)[C@@H](C[C@H](O)CNC(=O)CNC(=O)[C@H](Cc9ccccc9)NC(=O)CNC(=O)CNC(=O)CCC(=O)N9CCOCCN(C(=O)CCN%10C(=O)C=CC%10=O)CCOCC9)O[C@H]8C[C@H]8O[C@@H](CC[C@@H]1O2)C[C@@H](C)C8=C)O[C@@H]7[C@@H]6O3)[C@H]5O4 [Example 26] | 3.92 | 0.70 | 3.92 | 0.70 | 3.92 | 0.72 | 3.96 | 0.66 | 1.26
6 | CC[C@@]1(O)C(=O)OCc2c1cc1n(c2=O)Cc2c-1nc1cc(F)c(C)c3c1c2[C@@H](NC(=O)COCNC(=O)CNC(=O)CNC(=O)CNC(=O)CN1CCOCCN(C(=O)CCN2C(=O)C=CC2=O)CCOCC1)CC3 [Example 28] | 3.84 | 0.56 | 3.84 | 0.56 | 3.89 | 0.57 | 3.82 | 0.65 | 2.76
7 | C=C1C[C@@H]2CC[C@@]34C[C@H]5OC6C(O[C@H]7CC[C@H](CC(=O)C[C@@H]8[C@@H](OC)[C@@H](C[C@H](O)CNC(=O)CNC(=O)[C@H](Cc9ccccc9)NC(=O)CNC(=O)CNC(=O)CN9CCOCCOCCN(C(=O)CCCCCN%10C(=O)C=CC%10=O)CCOCCOCC9)O[C@H]8C[C@H]8O[C@@H](CC[C@@H]1O2)C[C@@H](C)C8=C)O[C@@H]7[C@@H]6O3)[C@H]5O4 [Example 39] | 4.30 | 0.90 | 4.30 | 0.90 | 4.32 | 0.92 | 4.30 | 0.98 | 0.00
8 | C=C1C[C@@H]2CC[C@@]34C[C@H]5OC6C(O[C@H]7CC[C@H](CC(=O)C[C@@H]8[C@@H](OC)[C@@H](C[C@H](O)CNC(=O)CNC(=O)[C@H](Cc9ccccc9)NC(=O)CNC(=O)CNC(=O)CN9CCOCCOCCN(C(=O)CCCC%10C(=O)C=CC%10=O)CCOCCOCC9)O[C@H]8C[C@H]8O[C@@H](CC[C@@H]1O2)C[C@@H](C)C8=C)O[C@@H]7[C@@H]6O3)[C@H]5O4 [Example 41] | 3.84 | 1.52 | 3.84 | 1.52 | 3.81 | 1.53 | 3.81 | 1.59 | 5.05
9 | C=C1C[C@@H]2CC[C@@]34C[C@H]5OC6C(O[C@H]7CC[C@H](CC(=O)C[C@@H]8[C@@H](OC)[C@@H](C[C@H](O)CNC(=O)CNC(=O)[C@H](Cc9ccccc9)NC(=O)CNC(=O)CN9CCOCCOCCN(C(=O)CCCC%10C(=O)C=CC%10=O)CCOCCOCC9)O[C@H]8C[C@H]8O[C@@H](CC[C@@H]1O2)C[C@@H](C)C8=C)O[C@@H]7[C@@H]6O3)[C@H]5O4 [Example 42] | 4.12 | 1.25 | 4.12 | 1.25 | 4.11 | 1.28 | 4.08 | 1.26 | 1.06
10 | C=C1C[C@@H]2CC[C@@]34C[C@H]5OC6C(C[C@H]7CC[C@H](CC(=O)C[C@@H]8[C@@H](OC)[C@@H](CC(O)CNC(=O)CNC(=O)[C@H](Cc9ccccc9)NC(=O)CNC(=O)CNC(=O)CN9CCN%10CCN(CCN(CC(=O)NCC(=O)NCC(=O)N[C@@H](Cc%11ccccc%11)C(=O)NCC(=O)NCOCC(=O)N[C@H]%11CCc%12c(C)c(F)cc%13nc%14c(c%11c%12%13)Cn%11c-%14cc%12c(c%11=O)COC(=O)[C@]%12(O)CC)CC9)CCN(C(=O)CCCCCN9C(=O)C=CC9=O)CC%10)O[C@H]8C[C@H]8O[C@@H](CC[C@@H]1O2)C[C@@H](C)C8=C)O[C@@H]7[C@@H]6O3)[C@H]5O4 (stereo partly drawn) [Example 59] | 3.83 | 1.18 | 3.83 | 1.18 | 3.83 | 1.22 | 3.78 | 1.27 | 2.57
